Laboratory results: publication PMC10397247
Each block holds one binder with its values, some of them ahead of it.

What was measured:
Test in all cases: two-hybrid library CCNG1;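 also: natural log of median RNA to DNA barcode read ratio; higher means stronger binding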
[1] = biological target: T1, 4H4001-bN
T1 chain: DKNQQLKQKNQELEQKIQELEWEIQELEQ

[2] = biological target: T2, 4H470-bN
T2 chain: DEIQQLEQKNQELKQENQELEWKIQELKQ

[3] = biological target: T3, 4H3961-bN; conditions: mean of both orientations
T3 chain: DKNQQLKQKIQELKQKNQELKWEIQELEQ

[4] = biological target: T4, 4H2588-bA
T4 chain: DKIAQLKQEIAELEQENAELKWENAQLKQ

[5] = biological target: T5, 4H2717-bA
T5 chain: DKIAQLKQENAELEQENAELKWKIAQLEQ

[6] = biological target: T6, 4H3277-bA
T6 chain: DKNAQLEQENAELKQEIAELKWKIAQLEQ

[7] = biological target: T7, 4H2839-bA
T7 chain: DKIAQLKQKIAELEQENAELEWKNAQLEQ

[8] = biological target: T8, 4H3057-bA
T8 chain: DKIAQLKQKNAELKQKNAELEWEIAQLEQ

[9] = biological target: T9, 4H492-bA
T9 chain: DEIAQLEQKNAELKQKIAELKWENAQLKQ

[10] = biological target: T10, 4H741-bA
T10 chain: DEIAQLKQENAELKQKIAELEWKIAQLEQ

[11] = biological target: T11, 4H2915-bA
T11 chain: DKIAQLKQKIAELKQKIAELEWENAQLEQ

[12] = biological target: T12, 4H477-bA
T12 chain: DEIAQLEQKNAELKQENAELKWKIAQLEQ

[13] = biological target: T13, 4H348-bA
T13 chain: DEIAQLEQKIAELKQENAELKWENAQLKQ

[14] = biological target: T14, 4H319-bA
T14 chain: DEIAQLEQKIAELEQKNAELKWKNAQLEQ

[15] = biological target: T15, 4H40-bA
T15 chain: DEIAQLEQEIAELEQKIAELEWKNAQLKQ

[16] = biological target: T16, 4H2692-bA
T16 chain: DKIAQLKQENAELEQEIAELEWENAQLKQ

[17] = biological target: T17, 4H462-bN
T17 chain: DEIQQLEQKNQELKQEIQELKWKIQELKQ

[18] = biological target: T18, 4H331-bN
T18 chain: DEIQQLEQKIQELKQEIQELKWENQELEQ

[19] = biological target: T19, 4H3189-bN
T19 chain: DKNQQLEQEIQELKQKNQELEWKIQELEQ

[20] = biological target: T20, 4H797-bN
T20 chain: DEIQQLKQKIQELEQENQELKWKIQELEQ

[21] = biological target: T21, 4H370-bN
T21 chain: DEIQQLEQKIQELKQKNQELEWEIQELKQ

[22] = biological target: T22, 4H918-bN
T22 chain: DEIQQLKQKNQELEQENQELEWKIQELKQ

[23] = biological target: T23, 4H568-bN
T23 chain: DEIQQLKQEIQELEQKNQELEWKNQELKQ

[24] = biological target: T24, 4H3782-bN
T24 chain: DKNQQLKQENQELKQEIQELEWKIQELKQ

[25] = biological target: T25, 4H883-bN
T25 chain: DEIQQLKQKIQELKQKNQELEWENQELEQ

[26] = biological target: T26, 4H3606-bN
T26 chain: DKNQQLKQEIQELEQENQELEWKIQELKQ

[27] = biological target: T27, 4H967-bN
T27 chain: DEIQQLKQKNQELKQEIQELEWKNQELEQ

[28] = biological target: T28, 4H687-bN
T28 chain: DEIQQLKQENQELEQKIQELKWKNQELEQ

[29] = biological target: T29, 4H607-bN
T29 chain: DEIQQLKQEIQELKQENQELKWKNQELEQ

[30] = biological target: T30, P5bHq
T30 chain: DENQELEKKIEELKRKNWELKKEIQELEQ

[31] = biological target: T31, 4H72-bN
T31 chain: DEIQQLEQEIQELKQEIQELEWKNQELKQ

[32] = biological target: T32, 4H953-bN
T32 chain: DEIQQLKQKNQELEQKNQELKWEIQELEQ

[33] = biological target: T33, 4H3843-bN
T33 chain: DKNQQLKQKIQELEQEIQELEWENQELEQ

[34] = biological target: T34, 4H953-bH
T34 chain: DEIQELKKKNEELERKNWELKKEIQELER

[35] = biological target: T35, 4H918-bH
T35 chain: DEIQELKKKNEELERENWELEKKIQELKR

[36] = biological target: T36, 4H780-bH
T36 chain: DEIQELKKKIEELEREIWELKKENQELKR

[37] = biological target: T37, 4H575-bH
T37 chain: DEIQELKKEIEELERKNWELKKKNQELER

[38] = biological target: T38, 4H3427-bH
T38 chain: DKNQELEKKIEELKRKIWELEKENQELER

[39] = biological target: T39, 4H797-bH
T39 chain: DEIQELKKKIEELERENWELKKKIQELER

[40] = biological target: T40, 4H346-bH
T40 chain: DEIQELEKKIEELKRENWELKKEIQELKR

[41] = biological target: T41, 4H457-bH
T41 chain: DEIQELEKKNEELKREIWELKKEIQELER

[42] = biological target: T42, 4H754-bH
T42 chain: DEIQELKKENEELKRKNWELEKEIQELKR

[43] = biological target: T43, 4H4073-bH
T43 chain: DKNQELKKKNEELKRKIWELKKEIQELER

[44] = biological target: T44, 4H2702-bH
T44 chain: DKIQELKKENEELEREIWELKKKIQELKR

[45] = biological target: T45, 4H968-bH
T45 chain: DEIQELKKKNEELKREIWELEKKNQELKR

[46] = biological target: T46, 4H683-bH
T46 chain: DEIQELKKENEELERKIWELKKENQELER

[47] = biological target: T47, 4H3010-bH
T47 chain: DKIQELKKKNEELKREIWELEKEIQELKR

[48] = biological target: T48, 4H3926-bH
T48 chain: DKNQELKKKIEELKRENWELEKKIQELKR

[49] = biological target: T49, 4H855-bH
T49 chain: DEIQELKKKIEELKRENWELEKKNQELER

[50] = biological target: T50, 4H3112-bH
T50 chain: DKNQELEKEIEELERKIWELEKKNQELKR

[51] = biological target: T51, 4H591-bA
T51 chain: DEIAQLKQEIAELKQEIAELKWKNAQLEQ

[52] = biological target: T52, 4H3298-bA
T52 chain: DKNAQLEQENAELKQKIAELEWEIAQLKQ

[53] = biological target: T53, 4H3628-bA
T53 chain: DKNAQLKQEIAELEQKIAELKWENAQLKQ

[54] = biological target: T54, 4H906-bA
T54 chain: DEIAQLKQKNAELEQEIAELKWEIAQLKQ

[55] = biological target: T55, 4H3497-bA
T55 chain: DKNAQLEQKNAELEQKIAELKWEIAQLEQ

[56] = biological target: T56, 4H3175-bA
T56 chain: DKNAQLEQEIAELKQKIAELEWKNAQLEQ

[57] = biological target: T57, 4H3613-bA
T57 chain: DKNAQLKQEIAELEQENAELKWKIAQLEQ

[58] = biological target: T58, 4H3462-bA
T58 chain: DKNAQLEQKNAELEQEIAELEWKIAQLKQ

[59] = biological target: T59, 4H3926-bA
T59 chain: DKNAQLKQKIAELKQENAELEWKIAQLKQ

[60] = biological target: T60, 4H626-bA
T60 chain: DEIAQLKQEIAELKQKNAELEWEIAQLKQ

[61] = biological target: T61, 4H56-bA
T61 chain: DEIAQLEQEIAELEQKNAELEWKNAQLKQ

[62] = biological target: T62, 4H2673-bH
T62 chain: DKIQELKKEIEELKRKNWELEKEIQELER

[63] = biological target: T63, P9A
T63 chain: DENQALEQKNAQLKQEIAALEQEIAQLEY

[64] = biological target: T64, P8A
T64 chain: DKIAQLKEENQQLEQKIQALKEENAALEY

[65] = biological target: T65, P7A
T65 chain: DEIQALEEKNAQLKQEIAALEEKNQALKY

[66] = biological target: T66, P6A
T66 chain: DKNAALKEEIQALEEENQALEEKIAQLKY

- interaction score [1]: -0.763
- interaction score [2]: -1.5
- interaction score [3]: -1.14
Binder: DKNQQLKQKIQELKQKNQELKWEIQELEQ [4H3961-bN]

- interaction score [4]: 1.71
- interaction score [5]: 0.0896
- interaction score [6]: -0.938
- interaction score [7]: 0.846
- interaction score [8]: -0.114
- interaction score [9]: 0.34
- interaction score [10]: -0.854
- interaction score [11]: 0.571
- interaction score [12]: -1.19
- interaction score [13]: 1.27
- interaction score [14]: 0.789
- interaction score [15]: -1.21
- interaction score [16]: -0.738
Binder: DKIAQLKQEIAELEQENAELKWENAQLKQ [4H2588-bA]

- interaction score [17]: -0.731
- interaction score [18]: -1.93
- interaction score [19]: -1.1
- interaction score [1]: -1.58
- interaction score [20]: -0.933
- interaction score [21]: -1.02
- interaction score [22]: -0.805
- interaction score [23]: -0.877
- interaction score [24]: -1.38
- interaction score [25]: -1.35
- interaction score [26]: -0.893
- interaction score [27]: -1.41
- interaction score [28]: -0.938
- interaction score [29]: -2.38
- interaction score [30]: -2.13
- interaction score [31]: -0.483
- interaction score [32]: -1.88
- interaction score [33]: -1.81
Binder: DKNQQLEQEIQELKQKNQELEWKIQELEQ [4H3189-bN]

- interaction score [34]: 0.896
- interaction score [35]: -0.77
- interaction score [36]: -0.871
- interaction score [37]: -2.01
- interaction score [38]: 0.468
- interaction score [39]: -0.247
- interaction score [40]: 0.405
- interaction score [41]: 1.57
- interaction score [42]: -0.588
- interaction score [43]: 0.92
- interaction score [44]: 1.55
- interaction score [45]: 0.8
- interaction score [46]: -0.558
- interaction score [47]: 1.37
- interaction score [48]: 0.525
- interaction score [49]: -0.0377
- interaction score [50]: 0.549
Binder: DKIQELKKENEELEREIWELKKKIQELKR [4H2702-bH]

- interaction score [51]: -1.55
- interaction score [6]: -0.717
- interaction score [1]: -0.893
- interaction score [52]: -0.491
- interaction score [53]: -0.531
- interaction score [54]: -1.09
- interaction score [55]: 0
- interaction score [56]: 0.672
- interaction score [57]: -0.277
- interaction score [58]: -0.259
- interaction score [59]: -0.662
- interaction score [60]: -2
Binder: DKNAQLEQEIAELKQKIAELEWKNAQLEQ [4H3175-bA]

- interaction score [34]: -1.62
- interaction score [35]: -0.87
- interaction score [36]: -0.56
- interaction score [37]: -0.762
- interaction score [38]: -0.449
- interaction score [39]: -0.55
- interaction score [61]: 0.863
- interaction score [40]: -0.803
- interaction score [41]: -0.154
- interaction score [42]: -1.99
- interaction score [43]: 0.575
- interaction score [44]: -0.671
- interaction score [45]: -0.933
- interaction score [46]: 0.639
- interaction score [47]: 2.11
- interaction score [48]: 0.192
- interaction score [49]: -0.854
- interaction score [50]: -0.64
- interaction score [62]: -0.111
Binder: DKIQELKKEIEELKRKNWELEKEIQELER [4H2673-bH]

- interaction score [63]: -0.171
- interaction score [64]: -0.152
- interaction score [65]: -0.197
- interaction score [66]: -0.792
Binder: DKNAALKEEIQALEEENQALEEKIAQLKY [P6A]
